These results are taken from paper PMC5347340 (2017).

Assay [1] has as its target BG505 gp140.681.R1-1V6H trimer (HIV-1 BG505, UniProt Q2N0S6). In words: BLI. (Biolayer interferometry detects binding as a change in optical thickness at a sensor tip.)
Assay [2] deals with BG505 gp140.681.R1-1NOG trimer (HIV-1 BG505, UniProt Q2N0S6). The experiment in a line: BLI.

What is called Kd is the equilibrium constant for the complex coming apart. The low end stands for tighter binding, the high end for weaker binding.

B1: PGDM1400 (protein)
chain 1: DFVLTQSPHSLSVTPGESASISCKSSHSLIHGDRNNYLAWYVQKPGRSPQLLIYLASSRASGVPDRFSGSGSDKDFTLKISRVETEDVGTYYCMQGRESPWTFGQGTKVDIKRTVAAPSVFIFPPSDEQLKSGTASVVCLLNNFYPREAKVQWKVDNALQSGNSQESVTEQDSKDSTYSLSSTLTLSKADYEKHKVYACEVTHQGLSSPVTKSFNRGEC
chain 2: QAQLVQSGPEVRKPGTSVKVSCKAPGNTLKTYDLHWVRSVPGQGLQWMGWISHEGDKKVIVERFKAKVTIDWDRSTNTAYLQLSGLTSGDTAVYYCAKGSKHRLRDYALYDDDGALNWAVDVDYLSNLEFWGQGTAVTVSSASTKGPSVFPLAPSSKSTSGGTAALGCLVKDYFPEPVTVSWNSGALTSGVHTFPAVLQSSGLYSLSSVVTVPSSSLGTQTYICNVNHKPSNTKVDKKVEPKSCD
As for B1, the Kd in assay [1] amounted to 5.1 nM; in assay [2] it was 4.7 nM.
